# Source: article PMC9351184, “Survey of the binding preferences of RNA-binding proteins to RNA editing events”
# Molecular target: ILF3 dsRBD;hnRNPC dsRBD (Homo sapiens;Homo sapiens, UniProt Q12906;P07910 398-590;16-57, |)
# Assay: EMSA; both proteins pooled; simultaneous binding; 1 uM labelled RNA, 3 uM protein, 10 ul, on ice 45 min; 6% PAGE in 0.5x TBE (gel pre-run at 4 C); binding buffer, salt and pH not stated (proteins dialyzed in 25 mM Tris-HCl pH 8.0, 150 mM NaCl; final elution from cation exchange/heparin up to 1 M NaCl, then SEC)
# Details: protein: recombinant;recombinant, tags: N-terminal GST (pGood6p), removed with TEV;10xHis (pSUMOH10), label: 5' DY781
binder,measurement,value
"AGUGGCUUAUGCCUGUGAUCCCAACAC (ssRNA, A-to-I editing site represented by G as printed (A/G); inosine not stated) [edited RNA]",binding result,binds
